Measured values reported in the supplement of paper PMC7125110.
± gives the standard error. Variants at the floor of the assay were thinned out.

B1: glmS ribozyme (parent)
chain: AUAAAAGCGCCAGAACUACAGAAAUGUAGUUGACGAGGAGGAGGUUUAUCGAAUUUUCGGCGGAUGCCUCCAAA

Tests used:
Details in all cases: with glucosamine-6-phosphate
glucosamine-6-phosphate [1] = variants of: B1; test: self-cleavage kobs at 40 uM GlcN6P; higher = faster cleavage; RNA array
In short: (§1)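 Tracking of barcoded ribozyme variants used a hybridised Cy3 probe at 37 °C, after in situ transcription by E. coli RNA polymerase on sequenced MiSeq chips. The flowed solution held 40 μM to 10 mM glucosamine-6-phosphate in HEPES/KCl/Mg(OAc)2 buffer, and imaging ran over ~14 h. kobs was taken from exponential decay fits of normalised per-tile medians, and kcat and KM from weighted Michaelis–Menten fits.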

glucosamine-6-phosphate [2] = variants of: B1; test: self-cleavage kobs at 160 uM GlcN6P; higher = faster cleavage; RNA array
In short: as §1

glucosamine-6-phosphate [3] = variants of: B1; test: self-cleavage kobs at 640 uM GlcN6P; higher = faster cleavage; RNA array
In short: as §1

glucosamine-6-phosphate [4] = variants of: B1; test: self-cleavage kobs at 2500 uM GlcN6P; higher = faster cleavage; RNA array
In short: as §1

glucosamine-6-phosphate [5] = variants of: B1; test: self-cleavage kobs at 10000 uM GlcN6P; higher = faster cleavage; RNA array
In short: as §1

Variant	self-cleavage kobs at 40 uM GlcN6P (glucosamine-6-phosphate [1])	self-cleavage kobs at 160 uM GlcN6P (glucosamine-6-phosphate [2])	self-cleavage kobs at 640 uM GlcN6P (glucosamine-6-phosphate [3])	self-cleavage kobs at 2500 uM GlcN6P (glucosamine-6-phosphate [4])	self-cleavage kobs at 10000 uM GlcN6P (glucosamine-6-phosphate [5])
A14G G51C A53C	< 1e-05 s⁻¹				
A6C G41C G43A A48G	< 1e-05 s⁻¹				
A12U U54A U69A	0.000126 ± 4.4e-05 s⁻¹	0.000159 ± 4.6e-05 s⁻¹	0.000125 ± 2.7e-05 s⁻¹	0.000458 ± 9.4e-05 s⁻¹	0.000322 ± 6.8e-05 s⁻¹
C10G A42C U47A G59U	< 1e-05 s⁻¹				
U47A G51C	< 1e-05 s⁻¹	< 1e-05 s⁻¹		< 1e-05 s⁻¹	< 1e-05 s⁻¹
G51C C61U G62C	< 1e-05 s⁻¹				< 1e-05 s⁻¹
G7C U30A	< 1e-05 s⁻¹	< 1e-05 s⁻¹	< 1e-05 s⁻¹	< 1e-05 s⁻¹	< 1e-05 s⁻¹
A14U A53G	0.000202 ± 2.5e-05 s⁻¹	0.000311 ± 5.2e-05 s⁻¹	0.00204 ± 0.00026 s⁻¹	0.00365 ± 0.00059 s⁻¹	0.00969 ± 0.0011 s⁻¹
A12C G26U	0.000614 ± 0.00014 s⁻¹		0.00546 ± 0.0013 s⁻¹	0.00321 ± 0.00099 s⁻¹	0.0113 ± 0.0032 s⁻¹
A42G G60A U65G	< 1e-05 s⁻¹			< 1e-05 s⁻¹	
A36C G62A	< 1e-05 s⁻¹	< 1e-05 s⁻¹		< 1e-05 s⁻¹	
C11A G51A	< 1e-05 s⁻¹		< 1e-05 s⁻¹		< 1e-05 s⁻¹
C8G C34U U55G	< 1e-05 s⁻¹				< 1e-05 s⁻¹
C8U G38U G59U C67U	< 1e-05 s⁻¹				
G41C G44U U47G	< 1e-05 s⁻¹				
A39C G51C C71G	< 1e-05 s⁻¹				< 1e-05 s⁻¹
U30G G43A	< 1e-05 s⁻¹	< 1e-05 s⁻¹			
G44C U49G	< 1e-05 s⁻¹			< 1e-05 s⁻¹	< 1e-05 s⁻¹
G13A G35A	< 1e-05 s⁻¹	< 1e-05 s⁻¹	< 1e-05 s⁻¹	< 1e-05 s⁻¹	
A6C C34U	< 1e-05 s⁻¹	< 1e-05 s⁻¹	< 1e-05 s⁻¹	< 1e-05 s⁻¹	< 1e-05 s⁻¹
G38C A39C G43U U57G C71U	< 1e-05 s⁻¹		< 1e-05 s⁻¹	< 1e-05 s⁻¹	< 1e-05 s⁻¹
A14G G40U C50G	< 1e-05 s⁻¹				
G29U U31A A42U	< 1e-05 s⁻¹				

Variant	self-cleavage kobs at 40 uM GlcN6P (glucosamine-6-phosphate [1])	self-cleavage kobs at 160 uM GlcN6P (glucosamine-6-phosphate [2])	self-cleavage kobs at 640 uM GlcN6P (glucosamine-6-phosphate [3])	self-cleavage kobs at 2500 uM GlcN6P (glucosamine-6-phosphate [4])	self-cleavage kobs at 10000 uM GlcN6P (glucosamine-6-phosphate [5])
A12G A14U A36G A48G A53G	< 1e-05 s⁻¹			< 1e-05 s⁻¹	< 1e-05 s⁻¹
C8U A39U U45G C70G	< 1e-05 s⁻¹				< 1e-05 s⁻¹
G37A C61A	< 1e-05 s⁻¹		< 1e-05 s⁻¹		< 1e-05 s⁻¹
G7A C67G	< 1e-05 s⁻¹		< 1e-05 s⁻¹	< 1e-05 s⁻¹	
C10G A42C	< 1e-05 s⁻¹				
G35U G60C	< 1e-05 s⁻¹	< 1e-05 s⁻¹	< 1e-05 s⁻¹	< 1e-05 s⁻¹	< 1e-05 s⁻¹
A14G U55C C70U	6.64e-05 ± 2.1e-05 s⁻¹				0.00236 ± 0.00041 s⁻¹
U30A C50G	3.17e-05 ± 1.5e-05 s⁻¹	6.28e-05 ± 1.6e-05 s⁻¹	0.00128 ± 0.0005 s⁻¹	6.93e-05 ± 1.6e-05 s⁻¹	
G7U C10G A12U U65G C68G	7.58e-05 ± 2.2e-05 s⁻¹				5.57e-05 ± 1.5e-05 s⁻¹
A48C U49G G62A	< 1e-05 s⁻¹				
G7U C16G	< 1e-05 s⁻¹		< 1e-05 s⁻¹		< 1e-05 s⁻¹
A42U U49G C68G	< 1e-05 s⁻¹				
G43A U57A	< 1e-05 s⁻¹			< 1e-05 s⁻¹	< 1e-05 s⁻¹
C8G C10U	< 1e-05 s⁻¹				< 1e-05 s⁻¹
C8G C11G	< 1e-05 s⁻¹	< 1e-05 s⁻¹			< 1e-05 s⁻¹
C11G G35C	< 1e-05 s⁻¹	< 1e-05 s⁻¹	< 1e-05 s⁻¹	< 1e-05 s⁻¹	< 1e-05 s⁻¹
U30A U56C A64G	< 1e-05 s⁻¹				2.96e-05 ± 1.4e-05 s⁻¹
G32U C34U	< 1e-05 s⁻¹	< 1e-05 s⁻¹	< 1e-05 s⁻¹		< 1e-05 s⁻¹
A33U U49C	< 1e-05 s⁻¹	< 1e-05 s⁻¹	< 1e-05 s⁻¹		< 1e-05 s⁻¹
A33C G43A G44A	< 1e-05 s⁻¹				< 1e-05 s⁻¹
G37U G40U C67G	< 1e-05 s⁻¹		< 1e-05 s⁻¹	< 1e-05 s⁻¹	
A14G A52G	9.65e-05 ± 1.7e-05 s⁻¹	0.000152 ± 4e-05 s⁻¹	0.00106 ± 0.00018 s⁻¹	0.00234 ± 0.00051 s⁻¹	0.00467 ± 0.001 s⁻¹
G60C A64G	< 1e-05 s⁻¹	< 1e-05 s⁻¹	< 1e-05 s⁻¹	< 1e-05 s⁻¹	< 1e-05 s⁻¹

Variant	self-cleavage kobs at 40 uM GlcN6P (glucosamine-6-phosphate [1])	self-cleavage kobs at 160 uM GlcN6P (glucosamine-6-phosphate [2])	self-cleavage kobs at 640 uM GlcN6P (glucosamine-6-phosphate [3])	self-cleavage kobs at 2500 uM GlcN6P (glucosamine-6-phosphate [4])	self-cleavage kobs at 10000 uM GlcN6P (glucosamine-6-phosphate [5])
C8U C50G C58G C71U	0.000808 ± 0.00019 s⁻¹				0.000113 ± 2.1e-05 s⁻¹
C61G C70U	< 1e-05 s⁻¹				< 1e-05 s⁻¹
C11A A14G A52C G63A	< 1e-05 s⁻¹				
G7C C10U A15U U49C	< 1e-05 s⁻¹				< 1e-05 s⁻¹
A6G A12U U65G	< 1e-05 s⁻¹				0.000137 ± 4.1e-05 s⁻¹
G44A G51A C67U	< 1e-05 s⁻¹				
G9U C68U C70U	< 1e-05 s⁻¹	< 1e-05 s⁻¹	< 1e-05 s⁻¹	< 1e-05 s⁻¹	< 1e-05 s⁻¹
C10G A52U G59C	< 1e-05 s⁻¹	< 1e-05 s⁻¹	< 1e-05 s⁻¹	< 1e-05 s⁻¹	
G35A U69A	< 1e-05 s⁻¹	< 1e-05 s⁻¹	< 1e-05 s⁻¹	< 1e-05 s⁻¹	
C11U A36G	< 1e-05 s⁻¹	< 1e-05 s⁻¹	< 1e-05 s⁻¹	< 1e-05 s⁻¹	
C8A G41U C50G	< 1e-05 s⁻¹				
A42G G51A A52U	< 1e-05 s⁻¹			< 1e-05 s⁻¹	
G37U G40A G41U A52G	< 1e-05 s⁻¹				
C8U G37C A42U U55C	< 1e-05 s⁻¹				
U57G C70G	3.7e-05 ± 9.8e-06 s⁻¹	0.00016 ± 3e-05 s⁻¹	0.000103 ± 1.5e-05 s⁻¹	8.84e-05 ± 1.5e-05 s⁻¹	2.33e-05 ± 1e-05 s⁻¹
C34A U45C	< 1e-05 s⁻¹	< 1e-05 s⁻¹	< 1e-05 s⁻¹	< 1e-05 s⁻¹	< 1e-05 s⁻¹
A6U A33G	< 1e-05 s⁻¹		< 1e-05 s⁻¹		
G9A G62C	< 1e-05 s⁻¹		< 1e-05 s⁻¹		< 1e-05 s⁻¹
A14U A36C	< 1e-05 s⁻¹		< 1e-05 s⁻¹		< 1e-05 s⁻¹
G29U A36G A48C C71G	< 1e-05 s⁻¹				
G7U U31A G32U G41U A48U	< 1e-05 s⁻¹				< 1e-05 s⁻¹
C34G	< 1e-05 s⁻¹	< 1e-05 s⁻¹	< 1e-05 s⁻¹	< 1e-05 s⁻¹	< 1e-05 s⁻¹
A36C C58U	< 1e-05 s⁻¹		< 1e-05 s⁻¹		< 1e-05 s⁻¹

Variant	self-cleavage kobs at 40 uM GlcN6P (glucosamine-6-phosphate [1])	self-cleavage kobs at 160 uM GlcN6P (glucosamine-6-phosphate [2])	self-cleavage kobs at 640 uM GlcN6P (glucosamine-6-phosphate [3])	self-cleavage kobs at 2500 uM GlcN6P (glucosamine-6-phosphate [4])	self-cleavage kobs at 10000 uM GlcN6P (glucosamine-6-phosphate [5])
A6G C50A C70U	< 1e-05 s⁻¹				
C10U G37C G44U U65C	< 1e-05 s⁻¹	< 1e-05 s⁻¹	< 1e-05 s⁻¹	< 1e-05 s⁻¹	
A42G U46C A48U	< 1e-05 s⁻¹				
U31A U69C	0.000182 ± 6.5e-05 s⁻¹	0.000243 ± 4.5e-05 s⁻¹	0.000515 ± 0.00012 s⁻¹		0.0039 ± 0.0012 s⁻¹
A14G C16U	0.00189 ± 0.00023 s⁻¹	0.0032 ± 0.0007 s⁻¹	0.00488 ± 0.00082 s⁻¹	0.00522 ± 0.0012 s⁻¹	0.0726 ± 0.02 s⁻¹
A33U A53U C61A U69A	< 1e-05 s⁻¹				
A14C G62C G63A C68G	< 1e-05 s⁻¹				
G37C A42C C71G	< 1e-05 s⁻¹	< 1e-05 s⁻¹	< 1e-05 s⁻¹	< 1e-05 s⁻¹	< 1e-05 s⁻¹
A6U C8G A33U C34G U69G	8.53e-05 ± 1.8e-05 s⁻¹		0.000181 ± 5.7e-05 s⁻¹		6.82e-05 ± 1.7e-05 s⁻¹
A6C A42U	< 1e-05 s⁻¹	< 1e-05 s⁻¹	< 1e-05 s⁻¹		< 1e-05 s⁻¹
G7C C71G	< 1e-05 s⁻¹			< 1e-05 s⁻¹	< 1e-05 s⁻¹
C34U U54A	< 1e-05 s⁻¹		< 1e-05 s⁻¹		< 1e-05 s⁻¹
U47C G66C	< 1e-05 s⁻¹	< 1e-05 s⁻¹	< 1e-05 s⁻¹	< 1e-05 s⁻¹	
G7A A52C	< 1e-05 s⁻¹	< 1e-05 s⁻¹	< 1e-05 s⁻¹	< 1e-05 s⁻¹	< 1e-05 s⁻¹
U47A A52C	< 1e-05 s⁻¹				
C8A G43A	< 1e-05 s⁻¹	< 1e-05 s⁻¹	< 1e-05 s⁻¹	< 1e-05 s⁻¹	
A14G C16G G38U C50G C67A	0.000102 ± 1.6e-05 s⁻¹				9.71e-05 ± 2.1e-05 s⁻¹
G35A U47C	< 1e-05 s⁻¹	< 1e-05 s⁻¹	< 1e-05 s⁻¹	< 1e-05 s⁻¹	
U57G U65G	< 1e-05 s⁻¹	< 1e-05 s⁻¹			
A53U C71G	9.68e-05 ± 1.3e-05 s⁻¹	0.000213 ± 7e-05 s⁻¹	0.000283 ± 4.7e-05 s⁻¹	0.000247 ± 5.4e-05 s⁻¹	0.00158 ± 0.00036 s⁻¹
A42C C61A G66U	< 1e-05 s⁻¹			< 1e-05 s⁻¹	
G29A G35C A39G G41U G43C G62A A64U	< 1e-05 s⁻¹		< 1e-05 s⁻¹	< 1e-05 s⁻¹	< 1e-05 s⁻¹
